In this test the target is Inactivated influenza H5N1, Ck HK Yu22/02 (Influenza A virus Ck/HK/Yu22/02 (H5N1)). In words: cell-based or functional assay.

B1: 10F7 single chain antibody (scFv)
scFv: QVQLQQPGAELVKPGASVKLSCKASGYTFTSYWMHWVKQRPGQGLEWIGEIDPSDSYTNYNQKFKGKATLTVDKSSSTAYMQLSSLTSEDSAVYYCARGGTGDFHYAMDYWGQGTSVTVSSGGGGSDILMTQSPSSMSVSLGDTVSITCHASQGISSNIGWLQQKPGKSFKGLIYHGTNLEDGVPSRFSGSGSGADYSLTISSLESEDFADYYCVQYVQFPYTFGGGTKLEIKR
In the case of B1, the neutralization: dilution of 10F7 scFv (fold dilution) came out at 64.

(Values after US20080199851A1.)
